{"source": "paper PMC8155215", "about": "“The splicing factor XAB2 interacts with ERCC1-XPF and XPG for R-loop processing”", "target": "T1, recombinant human XAB2 (Homo sapiens, UniProt Q9HCS7 1-855)", "T1 sequence": "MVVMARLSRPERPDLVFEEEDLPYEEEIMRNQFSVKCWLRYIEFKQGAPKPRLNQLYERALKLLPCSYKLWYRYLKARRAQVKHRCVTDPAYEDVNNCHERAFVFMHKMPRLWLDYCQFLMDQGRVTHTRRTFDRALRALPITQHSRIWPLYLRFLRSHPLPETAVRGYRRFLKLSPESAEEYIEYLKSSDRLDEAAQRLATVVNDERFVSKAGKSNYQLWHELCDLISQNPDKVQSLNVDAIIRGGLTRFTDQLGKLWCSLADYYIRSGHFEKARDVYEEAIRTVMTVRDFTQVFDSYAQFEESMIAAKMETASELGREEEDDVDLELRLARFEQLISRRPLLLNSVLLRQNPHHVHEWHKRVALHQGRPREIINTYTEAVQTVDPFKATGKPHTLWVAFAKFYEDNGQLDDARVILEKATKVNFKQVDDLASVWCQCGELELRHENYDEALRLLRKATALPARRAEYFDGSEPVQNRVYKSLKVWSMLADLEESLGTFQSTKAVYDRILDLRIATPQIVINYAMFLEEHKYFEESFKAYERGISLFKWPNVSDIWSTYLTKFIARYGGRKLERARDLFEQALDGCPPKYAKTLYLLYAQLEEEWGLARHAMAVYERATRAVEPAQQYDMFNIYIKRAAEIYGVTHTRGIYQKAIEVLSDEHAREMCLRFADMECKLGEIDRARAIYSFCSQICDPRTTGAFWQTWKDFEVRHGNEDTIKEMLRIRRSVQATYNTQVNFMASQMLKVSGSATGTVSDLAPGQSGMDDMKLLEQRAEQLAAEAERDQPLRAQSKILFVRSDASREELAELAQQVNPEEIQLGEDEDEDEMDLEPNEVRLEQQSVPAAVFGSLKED", "assay": "EMSA; 0.1-10 nmol protein, 100 pmol RNA; no consumption of RNA oligo; 10 mM Tris-HCl pH 8.0, 50 mM KCl, 10% glycerol, 0.5 mM EDTA, 0.5 mM DTT, 1 ug/ml BSA, 6 mM MgCl2, 30 min at 4 C, 10 ul, 100 pmol RNA; 4% native PAGE in 0.5x TBE pH 7.5", "conditions": "protein: commercial; label: 5' biotin; single strand"}
{"binder": "AUUGGAACGAUACAGAGAAGAU (ssRNA)", "note": "[XAB2RBS]", "values": [{"measurement": "binding result", "result": "no binding"}]}
